Earlier results, collected in PMC7699679.

What was measured:
CXCR2 (Homo sapiens) = CXCR2 (Homo sapiens) (UniProt P25025)
CXCR1 (Homo sapiens) = CXCR1 (Homo sapiens) (UniProt P25024)
CCR2 (Homo sapiens) = CCR2 (Homo sapiens) (UniProt P41597)
C5aR (Homo sapiens) = C5aR (Homo sapiens) (UniProt P21730)
Sequence of UniProt P21730 (P21730 whole entry): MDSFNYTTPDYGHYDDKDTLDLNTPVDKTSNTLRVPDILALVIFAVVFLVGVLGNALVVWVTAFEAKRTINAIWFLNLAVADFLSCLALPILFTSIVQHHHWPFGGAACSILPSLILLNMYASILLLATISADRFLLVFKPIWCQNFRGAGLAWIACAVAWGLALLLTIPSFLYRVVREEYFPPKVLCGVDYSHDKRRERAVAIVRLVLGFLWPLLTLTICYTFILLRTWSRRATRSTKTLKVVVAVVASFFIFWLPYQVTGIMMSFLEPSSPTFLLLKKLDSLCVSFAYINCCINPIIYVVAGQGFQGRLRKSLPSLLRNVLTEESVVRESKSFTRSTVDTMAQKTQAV

Sequence of UniProt P25025 (P25025 whole entry): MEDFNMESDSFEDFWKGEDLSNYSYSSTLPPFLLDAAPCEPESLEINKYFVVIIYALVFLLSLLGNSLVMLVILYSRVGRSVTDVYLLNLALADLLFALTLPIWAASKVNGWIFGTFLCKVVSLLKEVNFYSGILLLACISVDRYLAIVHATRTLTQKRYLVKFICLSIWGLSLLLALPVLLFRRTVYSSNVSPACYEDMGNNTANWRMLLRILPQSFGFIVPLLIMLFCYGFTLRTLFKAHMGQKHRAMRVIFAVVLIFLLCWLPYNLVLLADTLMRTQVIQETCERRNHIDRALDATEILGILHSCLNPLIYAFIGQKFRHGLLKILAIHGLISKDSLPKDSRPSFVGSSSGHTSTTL
Sequence of UniProt P25024 (P25024 whole entry): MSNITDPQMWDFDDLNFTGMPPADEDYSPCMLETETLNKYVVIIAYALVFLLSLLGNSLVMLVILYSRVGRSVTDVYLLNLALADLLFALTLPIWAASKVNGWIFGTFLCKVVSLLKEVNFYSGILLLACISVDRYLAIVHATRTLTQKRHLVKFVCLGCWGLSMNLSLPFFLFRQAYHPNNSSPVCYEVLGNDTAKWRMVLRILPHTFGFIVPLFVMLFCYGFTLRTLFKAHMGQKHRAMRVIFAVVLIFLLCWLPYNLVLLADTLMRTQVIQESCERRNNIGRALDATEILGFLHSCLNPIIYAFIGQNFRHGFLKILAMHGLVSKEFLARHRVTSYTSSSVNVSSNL
Sequence of UniProt P41597 (P41597 whole entry): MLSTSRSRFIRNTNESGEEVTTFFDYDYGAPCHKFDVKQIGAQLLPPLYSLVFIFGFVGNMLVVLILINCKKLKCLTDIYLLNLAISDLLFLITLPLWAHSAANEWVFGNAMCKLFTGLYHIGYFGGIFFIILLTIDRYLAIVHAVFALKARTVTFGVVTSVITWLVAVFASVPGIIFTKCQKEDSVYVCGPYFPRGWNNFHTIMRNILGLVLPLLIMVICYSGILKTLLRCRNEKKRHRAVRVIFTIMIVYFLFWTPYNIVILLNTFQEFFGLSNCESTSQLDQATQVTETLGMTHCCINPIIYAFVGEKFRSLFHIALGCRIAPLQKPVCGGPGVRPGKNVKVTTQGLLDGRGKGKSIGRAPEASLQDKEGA

| Substance | Kd (CXCR2 (Homo sapiens)) | Kd (CXCR1 (Homo sapiens)) | Kd (CCR2 (Homo sapiens)) | Kd (C5aR (Homo sapiens)) |
| --- | --- | --- | --- | --- |
| HlgA (from UniProt Q5HDD6) | 27.2 nM | 5.69 nM | 3.51 nM | – |
| HlgC (from UniProt Q07227) | – | – | – | 5.64 nM |
